Biological target: T1, H-2 D^b MHC class I molecule (mouse, UniProt P01887 21-119; P01899 25-362, limits assumed)
T1 construct: whole, on cells
T1 sequence (MHC heavy, looked up): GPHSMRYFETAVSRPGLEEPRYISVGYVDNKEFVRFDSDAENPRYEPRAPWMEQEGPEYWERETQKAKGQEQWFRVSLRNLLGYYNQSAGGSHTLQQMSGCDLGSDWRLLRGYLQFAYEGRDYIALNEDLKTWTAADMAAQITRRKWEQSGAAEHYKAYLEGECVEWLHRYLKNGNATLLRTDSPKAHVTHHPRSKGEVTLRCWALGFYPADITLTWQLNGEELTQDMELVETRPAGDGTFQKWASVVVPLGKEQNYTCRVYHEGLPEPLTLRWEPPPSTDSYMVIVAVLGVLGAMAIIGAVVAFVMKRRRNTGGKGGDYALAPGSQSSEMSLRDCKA
T1 sequence (b2m, looked up): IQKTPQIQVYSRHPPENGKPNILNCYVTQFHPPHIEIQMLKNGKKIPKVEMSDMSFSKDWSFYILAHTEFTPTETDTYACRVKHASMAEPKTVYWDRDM
Assay: synthetic peptide pulsed on L cells expressing H-2 D^b, read by T cell hybridoma activation

binding result: binds
B1: SPAS-1 peptide STHVNHLHC (peptide)
peptide: STHVNHLHC
notes: Encoded by nucleotides 730 to 756 of the SPAS-1 (T) cDNA from TRAMP-C2 tumor cells
